Test results: patent US7183387 (Genentech, dated 2007)

T1: human FcγRIIA-Arg131 α subunit extracellular domain-His6-GST fusion (human, UniProt P12318 34-217)
T1 construct: extracellular domain; also called FcγRIIA-R131; not shown: glutathione S transferase (GST)
T1 sequence: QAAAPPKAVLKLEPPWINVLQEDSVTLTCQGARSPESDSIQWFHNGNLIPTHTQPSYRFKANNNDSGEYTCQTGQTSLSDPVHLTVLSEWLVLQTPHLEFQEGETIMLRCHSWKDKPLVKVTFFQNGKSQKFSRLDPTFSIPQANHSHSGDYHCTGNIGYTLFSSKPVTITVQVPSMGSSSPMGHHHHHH

T2: human FcγRIIB α subunit extracellular domain-His6-GST fusion (human, UniProt P31994 43-217)
T2 construct: extracellular domain; also called CD32; not shown: glutathione S transferase (GST)
T2 sequence: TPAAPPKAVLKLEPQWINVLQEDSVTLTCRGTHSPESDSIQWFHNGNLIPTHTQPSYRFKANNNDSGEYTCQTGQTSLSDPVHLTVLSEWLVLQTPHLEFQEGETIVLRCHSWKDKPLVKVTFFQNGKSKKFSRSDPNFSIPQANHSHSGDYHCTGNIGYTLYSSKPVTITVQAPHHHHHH

T3: human FcγRIIA-R131 α subunit extracellular domain-6His-GST fusion (human, UniProt P12318 34-217)
T3 construct: also called FcγRIIA-Arg131; not shown: glutathione S-transferase (GST)
T3 sequence: T1 sequence

T4: human FcγRIIB α subunit extracellular domain-6His-GST fusion (human, UniProt P31994 43-217)
T4 construct: not shown: glutathione S-transferase (GST)
T4 sequence: T2 sequence

B1: E27 IgG1 variant E380(405)A/N434(465)A (antibody)
heavy: not shown
light: DIQLTQSPSSLSASVGDRVTITCRASKPVDGEGDSYLNWYQQKPGKAPKLLIYAASYLESGVPSRFSGSGSGTDFTLTISSLQPEDFATYYCQQSHEDPYTFGQGTKVEIKRTVAAPSVFIFPPSDEQLKSGTASVVCLLNNFYPREAKVQWKVDNALQSGNSQESVTEQDSKDSTYSLSSTLTLSKADYEKHKVYACEVTHQGLSSPVTKSFNRGEC
notes: also called IG2 269
B2: E27 IgG1 variant E380(405)A/L309(328)A (antibody)
heavy: not shown
light: B1 light
notes: also called IG2 271
B3: E27 IgG1 variant H434(465)A/K288(305)A (antibody)
heavy: not shown
light: B1 light
notes: also called IG2 272; Lys288Ala/Asn434Ala
B4: E27 IgG1 variant E380(405)A/N434(465)A/T307(326)A (antibody)
heavy: EVQLVESGGGLVQPGGSLRLSCAVSGYSITSGYSWNWIRQAPGKGLEWVASIKYSGETKYNPSVKGRITISRDDSKNTFYLQMNSLRAEDTAVYYCARGSHYFGHWHFAVWGQGTLVTVSSASTKGPSVFPLAPSSKSTSGGTAALGCLVKDYFPEPVTVSWNSGALTSGVHTFPAVLQSSGLYSLSSVVTVPSSSLGTQTYICNVNHKPSNTKVDKKVEPKSCDKTHTCPPCPAPELLGGPSVFLFPPKPKDTLMISRTPEVTCVVVDVSHEDPEVKFNWYVDGVEVHNAKTKPREEQYNSTYRVVSVLAVLHQDWLNGKEYKCKVSNKALPAPIEKTISKAKGQPREPQVYTLPPSREEMTKNQVSLTCLVKGFYPSDIAVAWESNGQPENNYKTTPPVLDSDGSFFLYSKLTVDKSRWQQGNVFSCSVMHEALHAHYTQKSLSLSPGK
light: B1 light
notes: also called IG2 270
B5: recombinant humanized anti-IgE E27 IgG1 (parent antibody) (antibody)
heavy: not shown
light: B1 light
notes: non-A allotype IgG1 Fc; E27 and all its variants were tested as monomers on FcRn and FcγRI and as hexamers with human IgE (3 E27 : 3 IgE) on FcγRIIA, FcγRIIB and FcγRIIIA; also called wt; E27 wildtype
B6: anti-IgE E27 IgG1 E318A (antibody)
heavy: not shown
light: B1 light
notes: also called Glu318Ala
B7: anti-IgE E27 IgG1 K320A (antibody)
heavy: not shown
light: B1 light
B8: anti-IgE E27 IgG1 Asn434Ala (antibody)
heavy: not shown
light: B1 light
B9: anti-IgE E27 IgG1 Lys322Ala (antibody)
heavy: not shown
light: B1 light
notes: also called K322A
B10: anti-IgE E27 IgG1 Pro331Ala (antibody)
heavy: not shown
light: B1 light
notes: also called P331A
B11: anti-IgE E27 IgG1 Lys414Ala (antibody)
heavy: not shown
light: B1 light
B12: anti-IgE E27 IgG1 Glu380Ala (antibody)
heavy: not shown
light: B1 light
B13: anti-IgE E27 IgG1 Asp265Asn (antibody)
heavy: not shown
light: B1 light
B14: anti-IgE E27 IgG1 Asp265Glu (antibody)
heavy: not shown
light: B1 light
B15: anti-IgE E27 IgG1 Asp270Asn (antibody)
heavy: not shown
light: B1 light
B16: anti-IgE E27 IgG1 Ser298Asn (antibody)
heavy: not shown
light: B1 light
B17: anti-IgE E27 IgG1 Glu380Ala/Asn434Ala (antibody)
heavy: not shown
light: B1 light
B18: anti-IgE E27 IgG1 Thr307Ala/Glu380Ala/Asn434Ala (antibody)
heavy: B4 heavy
light: B1 light

Each binder was assayed against T5, human FcRn, biotinylated (human, UniProt P55899 24-297; P61769 21-119, biotinylated (biotin-X-NHS)) (assay: ELISA, biotin-FcRn on streptavidin, pH 6.0).
T5 construct: Captured on streptavidin plates; IgG added at pH 6.0; also called neonatal Fc receptor
T5 sequence (P55899 24-297 limits assumed, chain 1 of 2): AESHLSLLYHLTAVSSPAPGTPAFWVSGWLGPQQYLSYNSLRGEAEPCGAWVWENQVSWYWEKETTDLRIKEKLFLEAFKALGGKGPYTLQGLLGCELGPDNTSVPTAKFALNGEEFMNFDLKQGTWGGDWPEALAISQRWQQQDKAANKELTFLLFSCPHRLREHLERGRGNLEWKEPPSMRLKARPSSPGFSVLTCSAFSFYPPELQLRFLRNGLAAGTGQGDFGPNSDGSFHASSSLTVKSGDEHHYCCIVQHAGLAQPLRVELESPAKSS
T5 sequence (P61769 21-119 limits assumed, chain 2 of 2): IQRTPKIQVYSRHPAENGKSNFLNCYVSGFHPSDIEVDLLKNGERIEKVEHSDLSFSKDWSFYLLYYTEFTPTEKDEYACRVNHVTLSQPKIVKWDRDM
Procedure: (§1) FcRn Binding ELISA: For measuring FcRn binding activity of IgG variants, ELISA plates were coated with 2 µg/ml streptavidin (Zymed, South San Francisco) in 50 mM carbonate buffer, pH 9.6, at 4° C. overnight and blocked with PBS-0.5% BSA, pH 7.2 at room temperature for one hour. Biotinylated FcRn (prepared using biotin-X-NHS from Research Organics, Cleveland, Ohio and used at 1–2 µg/ml) in PBS-0.5% BSA, 0.05% polysorbate 20, pH 7.2, was added to the plate and incubated for one hour. Two fold serial dilutions of IgG standard (1.6–100 ng/ml) or variants in PBS-0.5% BSA, 0.05% polysorbate 20, pH 6.0, were added to the plate and incubated for two hours. Bound IgG was detected using peroxidase labeled goat F(ab')_2 anti-human IgG F(ab')_2 in the above pH 6.0 buffer (Jackson ImmunoResearch, West Grove, Pa.) followed by 3,3',5,5'-tetramethyl benzidine (Kirgaard & Perry Laboratories) as the substrate. Plates were washed between steps with PBS-0.05% TWEEN 20® at either pH 7.2 or 6.0. Absorbance was read at 450 nm on a Vmax plate reader (Molecular Devices, Menlo Park, Calif.). Titration curves were fit with a four-parameter nonlinear regression curve-fitting program (KaleidaGraph, Synergy software, Reading, Pa.). Concentrations of IgG variants corresponding to the mid-point absorbance of the titration curve of the standard were calculated and then divided by the concentration of the standard corresponding to the mid-point absorbance of the standard titration curve.

Binder	ratio to native IgG1
B1	8
B2	0.9
B3	2.9
B4	11.8

These binders were tested against T6, human neonatal Fc receptor (FcRn), biotinylated (human, UniProt P55899 24-297; P61769 21-119, biotinylated (biotin-X-NHS)) (assay: FcRn ELISA (E27 background by paragraph 363)).
T6 construct: captured on streptavidin plates
T6 sequence (P55899 24-297 limits assumed, chain 1 of 2): as the sequence (P55899 24-297 limits assumed, chain 1 of 2) above
T6 sequence (P61769 21-119 limits assumed, chain 2 of 2): as the sequence (P61769 21-119 limits assumed, chain 2 of 2) above

Binder	binding result
B5	binds
B6	binds
B7	binds

Each binder was assayed against T7, human FcγRIA α subunit extracellular domain-His6-GST fusion (human, UniProt P12314 16-292) (assay: FcγRI ELISA and THP-1 cells, averaged).
T7 construct: extracellular domain; also called GST-FcγRIA; CD64; not shown: glutathione S transferase (GST)
T7 sequence (P12314 other isoform, or with tags, fused parts or gaps): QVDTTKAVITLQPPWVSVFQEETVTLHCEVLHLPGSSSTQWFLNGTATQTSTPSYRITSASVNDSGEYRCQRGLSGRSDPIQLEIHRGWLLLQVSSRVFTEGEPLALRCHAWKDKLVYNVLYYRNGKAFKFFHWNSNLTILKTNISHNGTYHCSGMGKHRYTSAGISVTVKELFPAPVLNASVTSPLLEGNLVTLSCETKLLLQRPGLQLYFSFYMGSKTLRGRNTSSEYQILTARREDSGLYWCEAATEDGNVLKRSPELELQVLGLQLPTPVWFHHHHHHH

Binder	ratio to native IgG1
B8	1 ratio
B9	0.94 ratio
B10	1.01 ratio
B11	1 ratio
B12	1.04 ratio

What follows are binders tested against T1, human FcγRIIA-Arg131 α subunit … (assay: immune complex ELISA, E27 background).

Binder	percentage of the wild type
B5	100%
B9	109%
B6	113%
B10	86%
B7	94%

These binders were tested against T2, human FcγRIIB α subunit extracellular … (assay: immune complex ELISA, E27 background).

Binder	percentage of the wild type
B5	100%
B9	101%
B6	106%
B10	58%
B7	83%

Each binder was assayed against T8, human FcγRIIIA-Phe158 α subunit extracellular domain-His6-GST fusion (human, UniProt P08637 17-208) (assay: immune complex ELISA, E27 background).
T8 construct: extracellular domain; also called FcγRIIIA-F158; CD16; not shown: glutathione S transferase (GST)
T8 sequence (P08637 other isoform, or with tags, fused parts or gaps): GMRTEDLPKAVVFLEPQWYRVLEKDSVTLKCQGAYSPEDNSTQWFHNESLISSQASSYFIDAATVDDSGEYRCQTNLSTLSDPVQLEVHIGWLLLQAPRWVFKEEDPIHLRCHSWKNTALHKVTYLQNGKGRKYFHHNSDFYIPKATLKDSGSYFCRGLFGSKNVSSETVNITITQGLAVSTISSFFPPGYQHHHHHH

Binder	percentage of the wild type
B5	100%
B9	90%
B6	104%
B10	73%
B7	72%

What follows are binders tested against T9, human FcγRIIIA-F158 α subunit extracellular domain-6His-GST fusion (human, UniProt P08637 17-208) (assay: ELISA, IgG:IgE hexamers on receptor-GST).
T9 construct: also called FcγRIIIA-Phe158; not shown: glutathione S-transferase (GST)
T9 sequence (P08637 other isoform, or with tags, fused parts or gaps, form in doubt): as the sequence (P08637 other isoform, or with tags, fused parts or gaps) above

Binder	ratio to native IgG1
B1	1.02
B2	0.92
B3	0.88
B4	0.96

These binders were tested against T3, human FcγRIIA-R131 α subunit … (assay: ELISA, IgG:IgE hexamers on receptor-GST).

Binder	ratio to native IgG1
B1	1.02
B2	0.98
B3	0.94
B4	0.99

Each binder was assayed against T4, human FcγRIIB α subunit extracellular … (assay: ELISA, IgG:IgE hexamers on receptor-GST).

Binder	ratio to native IgG1
B1	1.05
B2	1.04
B3	0.96
B4	0.99

What follows are binders tested against T7, human FcγRIA α subunit extracellular … (assay: FcγRI ELISA, E27 background).
Procedure: Prior to assay, plates are washed 3× with 250 μl of wash buffer (PBS pH 7.4 containing 0.5% TWEEN 20™) and blocked with 250 μl of assay buffer (50 mM Tris buffered saline, 0.05% TWEEN 20™, 0.5% RIA grade bovine albumin (Sigma A7888), and 2 mM EDTA pH 7.4). Samples diluted to 10 μg/ml in 1 ml of assay buffer are added to FcγRI α subunit coated plates and incubated for 120 minutes at 25° C. on an orbital shaker. […] Plates are washed 5× with wash buffer to remove unbound HRP goat anti-human IgG and bound anti-IgG is detected by adding 100 μl of substrate solution (0.4 mg/ml o-phenylenedaimine dihydrochloride, Sigma P6912, 6 mM H_2O_2 in PBS) and incubating for 8 min at 25° C. Enzymatic reaction is stopped by the addition of 100 μl 4.5N H_2SO_4 and colorimetric product is measured at 490 nm on a 96 well plate densitometer (Molecular Devices). Binding of variant is expressed as a percent of the wild type molecule.

Binder	percentage of the wild type
B5	100%
B9	90%
B6	93%
B10	74%
B7	102%

What follows are binders tested against T6, human neonatal Fc receptor (FcRn), … (assay: FcRn ELISA, pH 6.0;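 for ratio to native IgG1: Streptavidin-captured FcRn plates, IgG variants titrated 2 h at pH 6.0, peroxidase anti-human IgG read at 450 nm, variant over standard concentration at the standard curve mid-point absorbance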).
Procedure: as §1

Binder	ratio to native IgG1
B8	3.46 ratio
B9	0.98 ratio
B10	0.85 ratio
B11	1.02 ratio
B12	2.19 ratio

What follows are binders tested against T1, human FcγRIIA-Arg131 α subunit … (assay: hexamer ELISA).

Binder	binding result	reduction in binding against native IgG1
B13	no binding	
B14	no binding	
B15	no binding	
B11		40%
B16	no binding	

Each binder was assayed against T2, human FcγRIIB α subunit extracellular … (assay: hexamer ELISA).

Binder	binding result	reduction in binding against native IgG1
B13	no binding	
B14	no binding	
B15	no binding	
B11		40%
B16	no binding	

These binders were tested against T8, human FcγRIIIA-Phe158 α subunit … (assay: hexamer ELISA).

Binder	binding result
B13	no binding
B14	no binding
B15	no binding
B16	no binding

Target: T1, human FcγRIIA-Arg131 α subunit …
Assay: hexamer ELISA
Remark: another data set of the same source

Binder	ratio to native IgG1
B8	0.96 ratio
B9	1.17 ratio
B10	1.29 ratio
B11	0.64 ratio
B12	1.18 ratio

Target: T2, human FcγRIIB α subunit extracellular …
Assay: hexamer ELISA
Remark: another data set of the same source

Binder	ratio to native IgG1
B8	0.97 ratio
B9	1.28 ratio
B10	1.34 ratio
B11	0.58 ratio
B12	1.07 ratio

Target: T8, human FcγRIIIA-Phe158 α subunit …
Assay: hexamer ELISA
Remark: another data set of the same source

Binder	ratio to native IgG1
B8	0.77 ratio
B9	0.62 ratio
B10	1.08 ratio
B11	0.82 ratio
B12	0.92 ratio

Target: T6, human neonatal Fc receptor (FcRn), …
Assay: FcRn ELISA, pH 6.0;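 for ratio to native IgG1: Streptavidin-captured FcRn plates, IgG variants titrated 2 h at pH 6.0, peroxidase anti-human IgG read at 450 nm, variant over standard concentration at the standard curve mid-point absorbance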
Remark: another data set of the same source
Procedure: as §1

Binder	fold better binding than native IgG1
B17	> 8 fold
B8	3.5 fold
B18	13 fold
B12	2 fold
